This is an account of results in publication PMC1817651, “Ets-2 and C/EBP-beta are important mediators of ovine trophoblast Kunitz domain protein-1 gene expression in trophoblast”.

The target in data set [1] is T1, ovEts-2-GST fusion (Ovis aries, UniProt A0ACI6RFA5 364-444). Briefly: competition EMSA; 250-fold excess vs N1; EMSA: 35 fmol probe, 2 ug Ets-2-GST or 10 ug JEG-3 extract, buffer per cited ref 23; pull-down: extract in 25 mM Tris-HCl pH 7.5, 150 mM NaCl, 0.5% Triton X-100, 0.5 mM DTT, 4 C overnight. Particulars: protein: recombinant; tags: GST; blunt; only sense strand given.

The target of data set [2] is T1, ovEts-2-GST fusion. Briefly: EMSA; anti-Ets-2 supershift; EMSA: 35 fmol probe, 2 ug Ets-2-GST or 10 ug JEG-3 extract, buffer per cited ref 23; pull-down: extract in 25 mM Tris-HCl pH 7.5, 150 mM NaCl, 0.5% Triton X-100, 0.5 mM DTT, 4 C overnight. Particulars: protein: recombinant; tags: GST; label: 32P; blunt; only sense strand given. On the technique in general: Mobility shift assays separate free from complexed probe on a gel.

T1 sequence (A0ACI6RFA5 entry or part of it): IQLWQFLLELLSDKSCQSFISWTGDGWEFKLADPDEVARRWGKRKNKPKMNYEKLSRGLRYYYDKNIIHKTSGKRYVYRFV

B1: TKDP-1/3 (dsDNA)
DNA 1: TCCTCCCCTTGCCCACTCCCCTCCTTATCACCTGATCTCACGACTCA
DNA 2: TGAGTCGTGAGATCAGGTGATAAGGAGGGGAGTGGGCAAGGGGAGGA
For the molecule B1, the binding result with ovEts-2-GST fusion [1] is “no binding”.

B2: TKDP-1/5 (dsDNA)
DNA 1: CAGTGTGTCCATCCTCAGCATCCTCAGGAGCCCTC
DNA 2: GAGGGCTCCTGAGGATGCTGAGGATGGACACACTG
In the case of B2, the binding result with ovEts-2-GST fusion [1] was “no binding”.

B3: TKDP-1/1 (dsDNA)
DNA 1: ACAGATGCAGGAGGCATGGG
DNA 2: CCCATGCCTCCTGCATCTGT
As to B3, the binding result in the data set with ovEts-2-GST fusion [1] was “no binding”.

B4: TKDP-1/2 (dsDNA)
DNA 1: CATGGGTAGGTAGGGAGGTTATGCAATAAACAGGACTGACTCAACTCCTCC
DNA 2: GGAGGAGTTGAGTCAGTCCTGTTTATTGCATAACCTCCCTACCTACCCATG
For B4, in the data set with ovEts-2-GST fusion [1], the binding result was “no binding”.

B5: Ets-2 consensus (dsDNA)
DNA 1: CTAGGACCGGAAGTGGGAGT
DNA 2: ACTCCCACTTCCGGTCCTAG
In the case of B5, the binding result with ovEts-2-GST fusion [2] was “binds”.

B6: TKDP-1/6 (dsDNA)
DNA 1: AGGAGCCCTCCTGCAAGGCC
DNA 2: GGCCTTGCAGGAGGGCTCCT
For the molecule B6, the binding result with ovEts-2-GST fusion [1] is recorded as “no binding”.

B7: TKDP-1/4 (dsDNA)
DNA 1: CTGATCTCACGACTCAGCCAGAATATTAAAAGCTC
DNA 2: GAGCTTTTAATATTCTGGCTGAGTCGTGAGATCAG
On to B7, for which the binding result with ovEts-2-GST fusion [1] was “no binding”.
